Reference: patent US20150197564A1 (Regeneron, published 2015)

T1: hANGPTL3(17-169)-mFc (human)
T1 construct: also called N-terminal coiled-coil domain of hANGPTL3 with a C-terminal mouse Fc fusion
T1 chain: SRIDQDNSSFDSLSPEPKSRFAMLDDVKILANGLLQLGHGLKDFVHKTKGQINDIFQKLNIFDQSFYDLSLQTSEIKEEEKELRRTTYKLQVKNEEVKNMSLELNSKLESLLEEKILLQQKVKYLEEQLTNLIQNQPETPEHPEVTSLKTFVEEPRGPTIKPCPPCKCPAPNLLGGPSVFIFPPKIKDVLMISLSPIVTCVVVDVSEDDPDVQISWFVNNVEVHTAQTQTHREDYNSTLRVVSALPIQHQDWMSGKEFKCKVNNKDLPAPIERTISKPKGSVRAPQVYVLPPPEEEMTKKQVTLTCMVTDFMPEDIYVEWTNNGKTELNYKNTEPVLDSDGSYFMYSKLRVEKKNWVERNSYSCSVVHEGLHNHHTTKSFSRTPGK

T2: bovine LPL (bovine, UniProt P11151 29-478, limits assumed)
T2 sequence (looked up): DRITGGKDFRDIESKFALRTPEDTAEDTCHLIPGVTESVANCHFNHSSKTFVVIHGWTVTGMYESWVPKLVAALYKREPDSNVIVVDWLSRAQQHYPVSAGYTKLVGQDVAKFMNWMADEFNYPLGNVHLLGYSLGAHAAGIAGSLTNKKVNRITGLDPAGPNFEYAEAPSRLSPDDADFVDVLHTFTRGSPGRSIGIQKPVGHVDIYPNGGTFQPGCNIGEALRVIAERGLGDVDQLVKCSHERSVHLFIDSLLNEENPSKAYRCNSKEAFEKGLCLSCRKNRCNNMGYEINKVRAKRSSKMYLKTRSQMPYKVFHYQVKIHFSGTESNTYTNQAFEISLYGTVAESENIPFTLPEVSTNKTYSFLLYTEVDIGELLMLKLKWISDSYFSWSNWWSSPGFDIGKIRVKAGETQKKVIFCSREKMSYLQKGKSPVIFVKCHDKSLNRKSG

B1: mANGPTL3(17-455)-His (other)
chain: SRVDPDLSSFDSAPSEPKSRFAMLDDVKILANGLLQLGHGLKDFVHKTKGQINDIFQKLNIFDQSFYDLSLRTNEIKEEEKELRRTTSTLQVKNEEVKNMSVELNSKLESLLEEKTALQHKVRALEEQLTNLILSPAGAQEHPEVTSLKSFVEQQDNSIRELLQSVEEQYKQLSQQHMQIKEIEKQLRKTGIQEPSENSLSSKSRAPRTTPPLQLNETENTEQDDLPADCSAVYNRGEHTSGVYTIKPRNSQGFNVYCDTQSGSPWTLIQHRKDGSQDFNETWENYEKGFGRLDGEFWLGLEKIYAIVQQSNYILRLELQDWKDSKHYVEYSFHLGSHETNYTLHVAEIAGNIPGALPEHTDLMFSTWNHRAKGQLYCPESYSGGWWWNDICGENNLNGKYNKPRTKSRPERRRGIYWRPQSRKLYAIKSSKMMLQPTTHHHHHHHHHH
B2: hANGPTL3(17-460)-His (other)
chain: SRIDQDNSSFDSLSPEPKSRFAMLDDVKILANGLLQLGHGLKDFVHKTKGQINDIFQKLNIFDQSFYDLSLQTSEIKEEEKELRRTTYKLQVKNEEVKNMSLELNSKLESLLEEKILLQQKVKYLEEQLTNLIQNQPETPEHPEVTSLKTFVEKQDNSIKDLLQTVEDQYKQLNQQHSQIKEIENQLRRTSIQEPTEISLSSKPRAPRTTPFLQLNEIRNVKHDGIPAECTTIYNRGEHTSGMYAIRPSNSQVFHVYCDVISGSPWTLIQHRIDGSQNFNETWENYKYGFGRLDGEFWLGLEKIYSIVKQSNYVLRIELEDWKDNKHYIEYSFYLGNHETNYTLHLVAITGNVPNAIPENKDLVFSTWDHKAKGHFNCPEGYSGGWWWHDECGENNLNGKYNKPRAKSKPERRRGLSWKSQNGRLYSIKSTKMLIHPTDSESFEHHHHHHHHHH

Tests used:
hANGPTL3(17-460)-His [1] = target: B2; experiment: SPR Biacore, antigen captured, 25C, pH 7.4, HBS-EP
Experimental: (§1) All kinetic binding experiments were performed at 25° C. or 37° C. on a BIACORE™ T200 label-free molecular interaction instrument (GE Healthcare) using a CM5 sensor chip. Briefly, an antigen capture surface was generated by covalently coupling either an anti-mouse IgG-specific antibody (anti-mFc; GE Healthcare; catalog #BR-1008-38) or an anti-pentahistidine-specific antibody (Qiagen; catalog #34660) to the surface of a CM5 sensor chip using a standard amine coupling method.

hANGPTL3(17-169)-mFc = target: T1, hANGPTL3(17-169)-mFc; experiment: SPR Biacore, antigen captured, 25C, pH 7.4, HBS-EP
Experimental: as §1

bovine LPL = target: T2, bovine LPL; experiment: cell-based or functional assay
mANGPTL3(17-455)-His = target: B1; experiment: SPR Biacore, antigen captured, 37C, pH 7.4, HBS-EP
Experimental: as §1

hANGPTL3(17-460)-His [2] = target: B2; experiment: SPR Biacore, antigen captured, 37C, pH 7.4, HBS-EP
Experimental: as §1

| Kd (hANGPTL3(17-460)-His [1]) | koff (hANGPTL3(17-460)-His [1]) | kon (hANGPTL3(17-460)-His [1]) | t1/2 (hANGPTL3(17-460)-His [1]) | Kd (hANGPTL3(17-169)-mFc) | koff (hANGPTL3(17-169)-mFc) | kon (hANGPTL3(17-169)-mFc) | t1/2 (hANGPTL3(17-169)-mFc) | EC50 (nM), inhibition of LPL activity (bovine LPL) | binding result (mANGPTL3(17-455)-His) | Kd (hANGPTL3(17-460)-His [2]) | koff (hANGPTL3(17-460)-His [2]) | kon (hANGPTL3(17-460)-His [2]) | t1/2 (hANGPTL3(17-460)-His [2]) | Binder |
| --- | --- | --- | --- | --- | --- | --- | --- | --- | --- | --- | --- | --- | --- | --- |
| 0.137 nM | 4.12e-05 s⁻¹ | 301000 M⁻¹ s⁻¹ | 280 min | 0.0611 nM | 3.92e-05 s⁻¹ | 641000 M⁻¹ s⁻¹ | 295 min | – | – | – | – | – | – | H4H1296P (antibody, IgG4, V domains shown) VH: QVQLVESGGVSVKPGGSLRLSCAASGFTFSDYYMSWIRQAPGKGLEWVSYIGSSGTNDYYADSVKGRFTISRDNAKNSLYLQMDSLRAEDTAVYYCARDSSQMGFDYWGQGTLVTVSS VL: DIQMTQSPSSLSASVGDRVTITCRASQNIINFLNWYQQRPGKAPQLLIYVAASLQSGVPSRFTGSGYGTDFTLTISSLQPEDFATYYCQQTYTNPLTFGGGTKVEIKR |
| 0.0968 nM | 9.26e-05 s⁻¹ | 957000 M⁻¹ s⁻¹ | 125 min | 0.0463 nM | 5.92e-05 s⁻¹ | 1.28e+06 M⁻¹ s⁻¹ | 195 min | – | – | – | – | – | – | H4H1282P (antibody, IgG4, V domains shown) VH: EVQLVQSGGGVVQPGRSLRLSCAASGFTFSNYGMHWVRQAPGKGLEWVAVVWYDGDNKYYADSVKGRFTISRDNSKNTLYLQMNSLRAEDTAVYYCARDIITSRPTLDYWGQGTLVTVSS VL: DIQLTQSPSFLSASVGDRVTITCWASQGINSYLAWYQQKPGKAPKLLIYPASTLQSGVPSRFSGSGSGTEFTLTISSLQPVDFATYYCQQLNSYPLTFGGGTKVEIKR |
| 1.47 nM | 0.00189 s⁻¹ | 1.29e+06 M⁻¹ s⁻¹ | 6 min | 0.721 nM | 0.000835 s⁻¹ | 1.16e+06 M⁻¹ s⁻¹ | 14 min | – | – | – | – | – | – | H4H1268S (antibody, IgG4, V domains shown) VH: QVQLQQSGPGLVKPSQTLSLTCAISGDSVSSNSPAWNWIRQSPSRGLEWLGRTYYRSKWYNDYAVSVRGRITINPDTSNNQFSLHLNSVTPEDTAMYYCARDKGLTARPTYFDYWGQGTLVTVSS VL: DIQMTQSPSTLSASVGDRVTITCRASQSINYWLAWYQQKPGKAPKPLIYKASSLESGVPSRFSGSGSGTEFTLTISSLQPDDFTTYYCQQYNSYSPTFGQGTKLEIKR |
| – | – | – | – | – | – | – | – | 33 nM | – | – | – | – | – | B1 |
| 2.47 nM | 0.00126 s⁻¹ | 508000 M⁻¹ s⁻¹ | 9 min | 6.23 nM | 0.00422 s⁻¹ | 677000 M⁻¹ s⁻¹ | 3 min | – | no binding | 0.381 nM | 0.00181 s⁻¹ | 4.74e+06 M⁻¹ s⁻¹ | 6 min | H4H1263S (antibody, IgG4, V domains shown) VH: QVQLVQSGGGVVQPGRSLRLSCAASGFTFSTYGMHWVRQAPGKGLEWMAVISFDRGNKYYADSVKGRFTISRDNSKNTLYLQMNSLRAEDTAVYYCAKGGGSGTFYYYYGMDVWGQGTTVTVSS VL: DIQMTQSPSSVSASVGNRVTITCRASQGISSWLAWYHQKPGKVPKVLIYAASSLQSGVPSRFSGSGSGTDFTLTISSLQPEDFATYYCQQANSFPFTFGPGTKVEIKR |
| – | – | – | – | – | – | – | – | 625 nM | – | – | – | – | – | MfANGPTL3(17-170)-mmH (other) SRIDQDNSSFDSVSPEPKSRFAMLDDVKILANGLLQLGHGLKDFVHKTKGQINDIFQKLNIFDQSFYDLSLQTSEIKEEEKELRRTTYKLQVKNEEVKNMSLELNSKLESLLEEKILLQQKVKYLEEQLTNLIQNQPATPEHPEVTSLKSFVEKEQKLISEEDLGGEQKLISEEDLHHHHHH |
| – | – | – | – | – | – | – | – | 91 nM | – | – | – | – | – | hANGPTL3(17-170)-His (other) SRIDQDNSSFDSLSPEPKSRFAMLDDVKILANGLLQLGHGLKDFVHKTKGQINDIFQKLNIFDQSFYDLSLQTSEIKEEEKELRRTTYKLQVKNEEVKNMSLELNSKLESLLEEKILLQQKVKYLEEQLTNLIQNQPETPEHPEVTSLKTFVEKHHHHHH |
| 0.197 nM | 7.35e-05 s⁻¹ | 373000 M⁻¹ s⁻¹ | 157 min | 0.226 nM | 7.95e-05 s⁻¹ | 352000 M⁻¹ s⁻¹ | 145 min | – | – | – | – | – | – | H4H1295P (antibody, V domains shown) VH: QVQLVQSGPEVKKPGASVRVSCKASGYLSDFIITWVRQAPGQGLEWMGWISTYSGDTDSAPKFQGRVTMTTDTSTTTVFLELRSLRSDDTAVYYCARGRLFDYWGQGTLVTVSS VL: not shown |
| 5.62 nM | 0.00247 s⁻¹ | 440000 M⁻¹ s⁻¹ | 5 min | 5.95 nM | 0.00272 s⁻¹ | 457000 M⁻¹ s⁻¹ | 4 min | – | no binding | 0.986 nM | 0.00193 s⁻¹ | 1.96e+06 M⁻¹ s⁻¹ | 6 min | H4H1248P (antibody, IgG4, V domains shown) VH: QVQLVESGGGVVQPGRSLRLSCAASGFTFSSYGMHWVRQAPGKGLEWVAVISYDGSNKYYADSVKGRFTISRDNSKNTLYLQMNSLRAEDTAVYYCAKVGATTFYYYYGMDVWGQGTTVTVSS VL: DIQMTQSPSSVSAFVGDRVTITCRASQGISSWLAWYQQKPGKAPKLLIYAASSLQSGVPSRFSGSGSGTDFTLTISSLQPEDFATYYCQKANSFPFTFGPGTKVEIK |
| – | – | – | – | – | – | – | – | 50 nM | – | – | – | – | – | B2 |
